Residue numbers refer to the chain shown, from its start.
T1: mouse OX40 on transfected CHO cells (mouse, UniProt P47741 20-272)
T1 construct: also called mOX40
T1 sequence: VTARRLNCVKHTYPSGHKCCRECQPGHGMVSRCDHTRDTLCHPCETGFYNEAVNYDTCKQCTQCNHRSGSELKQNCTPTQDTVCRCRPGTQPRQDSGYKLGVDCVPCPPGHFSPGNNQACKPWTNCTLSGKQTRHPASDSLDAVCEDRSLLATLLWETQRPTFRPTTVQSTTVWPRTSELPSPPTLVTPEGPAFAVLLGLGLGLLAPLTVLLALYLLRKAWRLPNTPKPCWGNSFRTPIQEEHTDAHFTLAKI

T2: Human OX40 protein (hOX40-His) (human, UniProt P43489 29-214)
T2 construct: Soluble analyte in the SPR assay; also called His-tagged human OX40; not shown: His tag
T2 sequence: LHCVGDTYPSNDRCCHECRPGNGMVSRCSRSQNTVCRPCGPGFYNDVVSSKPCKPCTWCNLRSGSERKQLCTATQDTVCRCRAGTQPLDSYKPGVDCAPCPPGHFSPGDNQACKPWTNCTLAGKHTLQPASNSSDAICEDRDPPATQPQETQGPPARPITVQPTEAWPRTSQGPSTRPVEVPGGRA

B1: mouse anti-hOX40 antibody 07-9H3 (antibody, V domains shown)
VH: QVQLKQSGPGLVQPSQSLSITCTVSGFSLTSYGVLWVRQPPGKGLEWLGVIWSGGSTDYNAAFISRLSISKDNSKSQVFFKMNSLQADDTAIYYCAREEFGYWGQGTLVTVSA
VL: DIQMTQTTSSLSASLGDRVTISCRASQDINNYLNWYQQKPDGTVKLLIYYTSRLHSGVPSRFSGSGSGTDYSLTISNLEQEDIATYFCQQTNTLPWTFGGGTKLEIK
notes: Mouse IgG purified from ascites fluid
B2: 9A4-mHvKv-IgG1 (antibody, V domains shown)
VH: EVQLQQFGAELVKPGASVKISCKASGYTFTDYNMDWVKQSHGKSLEWIGDINPNYDSTSYNQKFKGKATLTVDKSSSTAYMELRSLTSEDTAVYYCARGGYGNYVDYFDYWGQGTTLTVSS
VL: NIVMTQSPKSMSMSVGERVTLSCKASENVVTYVSWYQQKPEQSPKLLIYGASNRYTGVPDRFTGSGSATDFTLTISSVQAEDLADYHCGQSYSYPYTFGGGTKLEIK
notes: Chimeric: mouse 9A4 variable domains with human IgG1 constant domains; also called 9A4 chimeric antibody
B3: 9A4 (mouse antibody) (antibody, V domains shown)
VH: B2 VH
VL: B2 VL
notes: also called 07-9A4
B4: 5C1-mHvKv-IgG1 (antibody, V domains shown)
VH: EVQLQQSGTVLARPGASVKMSCKASGYSFTSYWMHWVKQRPGQGLEWIGTIYPGNSDTSNNQKFKGKAKLTAVTSASTAYMELSSLTNEDSAVYYCTTFYYRYEDYYAMDYWGQGTSVTVSS
VL: DIVMTQSHKFMSTSVGDRVSITCKASQDVNTAVAWYQQKPGQSPKLLIYSASYRYTGVPDRFTGSGSGTDFTFTISSVQAEDLAVYYCQQHYSTPFTFGSGTKLEIK
notes: Chimeric: mouse 5C1 variable domains with human IgG1 constant domains; also called 5C1 chimeric antibody
B5: 9H3-H2K2-IgG1 (antibody, V domains shown)
VH: QVQLVESGGGVVQPGRSLRISCAVSGFSLTSYGVLWVRQAPGKGLEWVAVIWSGGSTDYNAAFISRLTISRDNSKSTVYFQMNSLRAEDTAVYYCAREEFGYWGQGTLVTVSS
VL: DIQMTQSPSSLSASVGDRVTITCRASQDINNYLNWYQQKPGGAVKLLIYYTSRLHSGVPSRFSGSGSGTDFTLTISSLQPEDIATYYCQQTNTLPWTFGGGTKLEIKR
notes: Humanized, with human IgG1 constant domains; also called 9H3 humanized antibody H2K2
B6: 9H3-H3K2-IgG1 (antibody, V domains shown)
VH: B5 VH with V48L, A49G
VL: B5 VL
notes: Humanized, with human IgG1 constant domains; also called 9H3 humanized antibody H3K2
B7: 9H3-H3K1-IgG1 (antibody, V domains shown)
VH: B5 VH with V48L, A49G
VL: B5 VL with S56T, I106V
notes: Humanized, with human IgG1 constant domains; also called 9H3 humanized antibody H3K1
B8: 9H3-H2K3-IgG1 (antibody, V domains shown)
VH: B5 VH
VL: B5 VL with F71Y, Y87F
notes: Humanized, with human IgG1 constant domains; also called 9H3 humanized antibody H2K3
B9: 9H3-H2K1-IgG1 (antibody, V domains shown)
VH: B5 VH
VL: B5 VL with S56T, I106V
notes: Humanized, with human IgG1 constant domains (CL, CH1, CH2, CH3); also called 9H3 humanized antibody H2K1
B10: 9H3-H3K3-IgG1 (antibody, V domains shown)
VH: B5 VH with V48L, A49G
VL: B5 VL with F71Y, Y87F
notes: Humanized, with human IgG1 constant domains; also called 9H3 humanized antibody H3K3
B11: 5D10-mHvKv-IgG1 (antibody, V domains shown)
VH: QVQLKESGPGLVAPSQSLSITCTVSGFSLTSYGVHWIRQPPGKGLEWLGVIWAGGNTNYNSALMSRLSISKDNSKSQVFLKMNSLQTDDTAMYNCASYDGYYGWFAYWGQGTLVTVSV
VL: B1 VL with N30S, N31Y, T91G, N92H
notes: Chimeric: mouse 5D10 variable domains with human IgG1 constant domains; also called 5D10 chimeric antibody
B12: 9H3-mHvKv-IgG1 (antibody, V domains shown)
VH: B1 VH
VL: B1 VL
notes: Chimeric: mouse 9H3 variable domains with human IgG1 constant domains (CL, CH1, CH2, CH3); also called 9H3 chimeric antibody; chimeric anti-hOX40 antibody

Each binder was assayed against T1, mouse OX40 on transfected CHO cells (assay: flow cytometry, CHO-mOX40 cells; anti-mIgG Fc-FITC against SSC-H).
Description: 25 ul CHO cells were added to each well. 25 ul purified anti-hOX40 antibodies (1 ug/ml) (9H3 or “07-9H3”) were added to each well and were incubated at 4° C. for 30 minutes.
After being washed with PBS (1200 rmp, 5 min) twice, 50 ul of anti-mouse IgG Fc antibody fluorescein isothiocyanate conjugate (anti-mIgG Fc-FITC) with 1:500 dilution was added into each well and was incubated at 4° C. for 30 minutes, followed by PBS wash (1200 rmp, 5 min). The signals for FITC were determined by flow cytometry.

| binding result | Binder |
| --- | --- |
| no binding | B1 |

These binders were tested against chimeric (mouse and human) OX40 on transfected CHO cells (chimeric (mouse and human)) (assay: flow cytometry, CHO-chiOX40 cells; antibody at 1 ug/ml; anti-mIgG Fc-FITC (x axis) against SSC-H; NC panel of the same cells 2.78%).

| % of cells in the anti-mouse-IgGFc-FITC positive gate | Binder |
| --- | --- |
| 33.9% | B1 |

What follows are binders tested against T2, Human OX40 protein (hOX40-His) (assay: SPR, Biacore T200, antibody captured on Protein A chip, hOX40-His as analyte, 1:1 Langmuir fit).
Description: The antibodies were tested for hOX40 binding. The affinity of an antibody was determined by surface plasmon resonance (Biacore T200 biosensor, Biacore, INC, Piscataway N.J.) equipped with pre-immobilized Protein A sensor chips.
Anti-hOX40 antibody 9H3-mHvKv-IgG1 (1 μg/mL) were injected into Biacore T200 biosensor at 10 μL/min for 25 seconds to achieve to a desired protein density (about 112 response units (RU)). […] Dissociation was monitored for 300 seconds. The chip was regenerated after the last injection of each titration with Glycine (pH 2.0, 30 μL/min for 12 seconds).
The same method with necessary appropriate adjustments for parameters (e.g., concentrations of the antibodies) were performed for all other tested antibodies.

| Kd | koff | kon | Binder |
| --- | --- | --- | --- |
| 55.3 nM | 0.00669 s⁻¹ | 121000 M⁻¹ s⁻¹ | B2 |
| 21.6 nM | 0.00192 s⁻¹ | 89100 M⁻¹ s⁻¹ | B3 |
| 29.8 nM | 0.00163 s⁻¹ | 54900 M⁻¹ s⁻¹ | B4 |
| 3.84 nM | 0.00087 s⁻¹ | 227000 M⁻¹ s⁻¹ | B5 |
| 3.34 nM | 0.000642 s⁻¹ | 192000 M⁻¹ s⁻¹ | B6 |
| 2.49 nM | 0.000606 s⁻¹ | 244000 M⁻¹ s⁻¹ | B7 |
| 1.55 nM | 0.000393 s⁻¹ | 254000 M⁻¹ s⁻¹ | B8 |
| 3.35 nM | 0.000748 s⁻¹ | 223000 M⁻¹ s⁻¹ | B9 |
| 1.92 nM | 0.000451 s⁻¹ | 235000 M⁻¹ s⁻¹ | B10 |
| 46.5 nM | 0.0147 s⁻¹ | 317000 M⁻¹ s⁻¹ | B11 |
| 2.31 nM | 0.000594 s⁻¹ | 258000 M⁻¹ s⁻¹ | B12 |

— patent US20210206866A1 (EUCURE BEIJING BIOPHARMA, published 2021)
